Laboratory results taken from the DeepSol protein solubility set.

Experiment: soluble on expression in E. coli; label from the status in PepcDB or PDB records

Row | Sequence | soluble on expression in E. coli
1 | AIAQSRKQLPITNAVIHPVVLLGIVDHYNRACKNTRKRAVGILLGTIDRRGHAEVLNSFAVPFEEDERNPTVFFFDHDYVENMAAMFRKVTARERIIGWYSTGPQIRPADMGVHEIVQGFCSSGHALYVICQVDPKETGLPTEAYVSLEEDSVALEGSAPGQPRRIFEHVPNSIGALEAEEVGTEHLLRDVRNWSVSTLTGEVRAKLDALQSLRARLENIRRYLEEVASGNLPLHQEILHALQLVLKGLPRNAASSELTQAFAVCSNEQTLLIYVATLLRSVLVLHDLVNNKTELLETERKMEVAFSNATTAMDAPGSPTVADSL | soluble
2 | AIASEVSCKKRDDYLEWPEYFMAVAFLSAQRSKDPNSQVGACIVNSENKIVGIGYNGMPNGCSDDVLPWRRTAENKLDTKYPYVCHAELNAIMNKNLTDVKGCSMYVALFPCNECAKLIIQAGIKEVIFMSDKYHDSDEATAARLLFNMAGVTFRKFIPKCSKIVIDFDSINSRPSQKLQ | soluble
3 | AIAVHQASPVKNISDTRPKRSPEYWYYYCTYEDNSVKSPLVPGLKVETQAVADRFSADIFSAVERYNQLFSEVQKQSFKYVPEEESDNQSN | soluble
4 | AKTPVREILLFDSDEFLQHNAFRAPGAPTLEALRDAEKKVEYFKSIYSNMHKRISTSSTYIDEENLELLNGVTFAFICIDAGTSKKSIVQKLEELDIPFVDVGM | not soluble
5 | AMAISDPEETLMDSTTATAELGWMVHPPSGWEEVSGYDENMNTIRTYQVCNVFESSQNNWLRTKFIRRRGAHRIHVEMKFSVRDCSSIPSVPGSCKETFNLYYYEADFDLATKTFPNWMENPWVKVDTIAADESISQVDLGGRVMKINTEVRSFGPVSRNGFYLAFQDYGGCMSLIAVRVFYRKCPR | soluble
6 | ANEMTYEQLARELLLVGPAPTNEDLKLRYLDVLIDNGLNPPGPPKRILIVGAGIAGLVAGDLLTRAGHDVTILEANANRVGGRIKTFHAKKGEPSPFADPAQYAEAGAMRLPSFHPLTLALIDKLGLKRRLFFNVDIDPQTGNQDAPVPPVFYKSFKDGKTWTNGAPSPEFKEPDKRNHTWIRTNREQVRRAQYATDPSSINEGFHLTGCETRLTVSDMVNQALEPVRDYYSVKQDDGTRVNKPFKEWLAGWADVVRDFDGYSMGRFLREYAEFSDEAVEAIGTIENMTSRLHLAFFHSFLGRSDIDPRATYWEIEGGSRMLPETLAKDLRDQIVMGQRMVRLEYYDPGRDGHHGELTGPGGPAVAIQTVPEGEPY | soluble
7 | ANFNVPKLGVFPVAAVFDIDNVPEDSSATGSRWLPSIYQGGNYWGGGPQALHAQVSNFDSSNRLPYNPRTENNPAGNCAFAFNPFGQYISNISSAQSVHRRIYGIDLNDEPLFSPNAASITNGGNPTMSQDTGYHNIGPINTAYKAEIFRPVNPLPMSDTAPDPETLEPGQTEPLIKSDGVYSNSGIASFIFDRPVTEPNPNWPPLPPPVIPIIYPTPALGIGAAAAYGFGYQVTVYRWEEIPVEFIADPETCPAQPTTDKVIIRTTDLNPEGSPCAYEAGIILVRQTSNPMNAVAGRLVPYVEDIAVDIFLTGKFFTLNPPLRITNNYFADDEVKENTVTIGNYTTTLSSAYYAVYKTDGYGGATCFIASGGAGISALVQLQDNSVLDVLYYSLPLSLGGSKAAIDEWVANNCGLFPMSGGLDKTTLLEIPRRQLEAINPQDGPGQYDLFILDDSGAYASFSSFIGYPEAAYYVAGAATFMDVENPDEIIFILRNGAGWYACEIGDALKIADDEFDSVDYFAYRGGVMFIGSARYTEGGDPLPIKYRAIIPGLP | soluble
8 | ANSVQQQLEALEKSSGGRLGVALINTADNSQILYRADERFAMCSTSKVMAAAAVLKQSESDKHLLNQRVEIKKSDLVNYNPIAEKHVNGTMTLAELGAAALQYSDNTAMNKLIAHLGGPDKVTAFARSLGDETFRLDRTAPTLNTAIPGDPRDTTTPLAMAQTLKNLTLGKALAETQRAQLVTWLKGNTTGSASIRAGLPKSWVVGDKTGSGDYGTTNDIAVIWPENHAPLVLVTYFTQPEQKAERRRDILAAAAKIVTHGF | soluble
9 | APEAFLNSVLQPFVLPFLQRYPKIQLKLRAADGEIDLFRQGIDVAFKLTDKPDENLVLKEISKTNLVLCASPDYLAQRGMPEHPTQLEQHDCIYLAENDKDNIWSFFKEEAFHSIAVSGRYAVNHSQMRLNGVKAGLGIGIFHDFVVKEALERGEVVEVLSDWMIKSNYHGAVAMQYAQTKYMPARLRVFIGFVNEHLVSKEPTHV | not soluble
10 | APTLISLLEVIEPEVLYSGYDSTLPDTSTRLMSTLNRLGGRQVVSAVKWAKALPGFRNLHLDDQMTLLQYSWMSLMAFSLGWRSYKQSNGNMLCFAPDLVINEERMQLPYMYDQCQQMLKISSEFVRLQVSYDEYLCMKVLLLLSTVPKDGLKSQAVFDEIRMTYIKELGKAIVKREGNSSQNWQRFYQLTKLLDSMHEMVGGLLQFCFYTFVNKSLSVEFPEMLAEIISNQLPKFKAGSVKPLLFHQK | soluble
11 | APWFLEYSKSECHFYNGTQRVRLLVRYFYNLEENLRFDSDVGEFRAVTELGRPDAENWNSQPEFLEQKRAEVDTVCRHNYEIFDNFLVPRRVEPTVTVYPTKTQPLEHHNLLVCSVSDFYPGNIEVRWFRNGKEEKTGIVSTGLVRNGDWTFQTLVMLETVPQSGEVYTCQVEHPSLTDPVTVEW | soluble
12 | AQRVKDRPDGDTRRSELTMKLINKRGAVRERKLISYSIDMGKDKKDKKTIMFFLYPGDVKGTGFLTWDYDQIGKDDDKWLYLPAMKKTRRISGASAKKDYFMGSDFTYDDMGSRNVDEDTHKLLGEETFDGHKCWKLESTSKDQRDVFSKKIAWIRQDCLIPVRVEYYDRMNRLHRLLELSDIAQVDGFWMAQKMNMSNVQTGHRTVLEIKKPEFNRPIDESKFTVTSLEK | not soluble
13 | ARDTLFVNLTDATDSQSLKLSDFGNTVRYVPLETNEVCLIGNNPHIALLEDKIVIATKDQCFLFHKQTGKYICSIGHIGDDPSGYSSTNYWIDDAGLFYFFRAPDQLLKYNQKGEMTGKIQIPHIPAAPDFFAFSDSTIIAHCNSSIGLESSNSLLFLNSFGEKLDSIPNLLKSPSIPSPDNISSLSIIKRGAGFFGNLGRRGVMIIKDKEQGELLLPLYNPSLWSSENEVRFRETFTDTIYTIKNRKLYPYMVFHTDTDHSSANPLWYSNPQSIYVAYVLENTHSVFFQYVKNKQVYNGLYNKETQQTKFAKCQQFIVDDLTSEQELKVDLSALCSYKGEYGFILEAASIPDASQKQSDNKNENIPHWMSQLDEDANPVIAIVSDK | soluble
14 | ASVLTVKDIARKKPAAVFKKSEHDGPGSAMQILMDHDRDYGIVVDKSSRYSGIVSLDSLRLAHKENRSLASAQLEDDVTLQPDQSVNDILGVVASVPYAVPVVDEQGTYFGVVTKSRLLQTLDKD | soluble
15 | ATDKRLLGNTAIIGQSGSGKTVLLGFLLAQAQKFKPTTVVFDKDRGMEIAIRAMGGRYLTFKPGRQSGFNPFQLPPTQDNLTFLKQFVKKLAEASSEITHRDEEEINQAVMSIMSSNINPSLRRLSFLLQFLPNPHLNDYNSHPSVHTRLIKWCEGGDYGWLFDNPTDALDLSTHQIYGFDITEFLDNPETRTPVMMYLLYRTEGMISGQRFMYIFDEFWKPLQDPYFEDLAKNKQKTIRKQNGIFVFATQEPTDALESNIAKTLIQQCATYIFLA | not soluble
16 | ATRMAPVIMVPGSSASQNRFDSLITELGKETPKKHSVLKLTVQTDGTIKYSGSIAANDNEPFIVIGFANNRDGKANIDKQAVWLNTAFKALVKTYHFNHFYALGHSNGGLIWTLFLERYLKESPKVHIDRLMTIASPYNMESTSTTAKTSMFKELYRYRTGLPESLTVYSIAGTENYTSDGTVPYNSVNYGKYIFQDQVKHFTEITVTGANTAHSDLPQNKQIVSLIRQYLLAETMPDKVRQKNAQRVQN | soluble
17 | AVAQQLRAESDFEQLPDDVAISANIADIEEKRGFTSHFVFVIEVKTKGGSKYLIYRRYRQFHALQSKLEERFGPDSKSSALACTLPTLPAKVYVGVKQEIAEMRIPALNAYMKSLLSLPVWVLMDEDVRIFFYQSPYDSEQVP | soluble
18 | AVFNYALMPSLQQFNKILAHELNLVLDEDGPLKSDAPLRRQLLERLGVTVHSINSEKAVEFNHAMSIDLMSEEMTQELGSPTEVRLLLGSESYILWMHIEKLPNSIIRIPLSELQEEDFAPLFR | not soluble
19 | AVTIPPARHAEPQRWIARLPGFKISENKAQALWELAGKNIEGLQTDKALPTDWQAWRSEPQNAALLENLKTFFAQMPSEDEAAQGSDGIN | not soluble
20 | AWQVNTAYTAGQLVTYNGKTYKCLQPHTSLAGWEPSNVPALWQLQ | soluble
21 | CGVGFIAAIDGKPRRSVVEKGIEALKAVWHRGAVDADGKTGDGAGIHVAVPQKFFKDHVKVIGHRAPDNKLAVGQVFLPRISLDAQEACRCIVETEILAFGYYIYGWRQVPINVDIIGEKANATRPEIEQIIVGNNKGVSDEQFELDLYIIRRRIEKAVKGEQINDFYICSLSARSIIYKGMFLAEQLTTFYPDLLDERFESDFAIYHQRYSTNTFPTWPLAQPFRMLAHNGEINTVKGNVNWMKAHETRMEHPAFGTHMQDLKPVIGVGLSDSGSLDTVFEVMVRAGRTAPMVKMMLVPQALTSSQTTPDNHKALIQYCNSVMEPWDGPAALAMTDGRWVVGGMDRNGLRPMRYTITTDGLIIGGSETGMVKIDETQVIEKGRLGPGEMIAVDLQSGKLYRDRELKDHLATLKPWDKWVQNTTHLDELVKTASLKGEPSDMDKAELRRRQQAFGLTMEDMELILHPMVEDGKEAIGSMGDDSPIAVLSDKYRGLHHFFRQNFSQVTNPPIDSLRERRVMSLKTRLGNLGNILDEDETQTRLLQLESPVLTTAEFRAMRDYMGDTAAEIDATFPVDGGPEALRDALRRIRQETEDAVRGGATHVILTDEAMGPARAAIPAILATGAVHTHLIRSNLRTFTSLNVRTAEGLDTHYFAVLIGVGATTVNAYLAQEAIAERHRRGLFGSMPLEKGMANYKKAIDDGLLKIMSKMGISVISSYRGGGNFEAIGLSRALVAEHFPAMVSRISGIGLNGIQKKVLEQHATAYNEEVVALPVGGFYRFRKSGDRHGWEGGVIHTLQQAVTNDSYTTFKKYSEQVNKRPPMQLRDLLELRSTKAPVPVDEVESITAIRKRFITPGMSMGALSPEAHGTLNVAMNRIGAKSDSGEGGEDPARFRPDKNGDNWNSAIKQVASGRFGVTAEYLNQCRELEIKVAQGAKPGEGGQLPGFKVTEMIARLRHSTPGVMLISPPPHHDIYSIEDLAQLIYDLKQINPDAKVTVKLVSRSGIGTIAAGVAKANADIILISGNSGGTGASPQTSIKFAGLPWEMGLSEVHQVLTLNRLRHRVRLRTDGGLKTGRDIVIAAMLGAEEFGIGTASLIAMGCIMVRQCHSNTCPVGVCVQDDKLRQKFVGTPEKVVNLFTFLAEEVREILAGLGFRSLNEVIGRTDLLHQVSRGAEHLDDLDLNPRLAQVDPGENARYCTLQGRNEVPDTLDARIVADARPLFEEGEKMQLAYNARNTQRAIGTRLSSMVTRKFGMFGLQPGHITIRLRGTAGQSLGAFAVQGIKLEVMGDANDYVGKGLSGGTIVVRPTTSSPLETNKNTIIGNTVLYGATAGKLFAAGQAGERFAVRNSGATVVVEGCGSNGCEYMTGGTAVILGRVGDNFAAGMTGGMAYVYDLDDSLPLYINDESVIFQRIEVGHYESQLKHLIEEHVTETQSRFAAEILNDWAREVTKFWQVVPKEMLNRLEVPVHLPKAISAE | soluble
22 | CHAINAAGKKVLIVYAHQEPKSFNGSLKNVAVDELSRQGCTVTVSDLYAMNFEPRATDKDITGTLSNPEVFNYGVETHEAYKQRSLASDITDEQKKVREADLVIFQFPLYWFSVPAILKGWMDRVLCQGFAFDIPGFYDSGLLQGKLALLSVTTGGTAEMYTKTGVNGDSRYFLWPLQHGTLHFCGFKVLAPQISFAPEIASEEERKGMVAAWSQRLQTIWKEEPIPCTAHWHFGQ | soluble
